In article PMC7078309, “New Therapeutic Candidates for the Treatment of Malassezia pachydermatis -Associated Infections” (Scientific Reports, 2020):

Substrate: O=C(O)CCC(=O)C(=O)O
Test: NAD/NADH quantification kit, Lineweaver-Burk
Assay type: biochemical, Malassezia pachydermatis
Conditions: without inhibitor; reverse reaction; 2-OG 15-30 mM; NADH
Excerpt: NAD/NADH quantification kit, Lineweaver-Burk on MpSDH

B1: MpSDH (Malassezia pachydermatis) (protein)
chain: MTGTQALWLRCETKPAEHRSALTPTTAKKLINAGFDITVERDPNRIFDDEEFEKVGCHMAEYHSWPKAPKTTPIIGLKELDTPGPDLEHTHIQFAHCYKHQEGWVDVLARFKRGGGKLYDLEFLEDANGRRVAAFGWHAGFAGAALGLLALAEQVEGKVLGAQTKYPNEEALMEKTREAVRVIRKHRPDGRVTSLIIGALGRCGRGAIDCLEKSGLQSDEIVRWDIQETSAKSGPYQEIIDSDLFVNCIYLSKKIPPFVNKESLQAVGDKRRLGMIVDVSCDTTNPNNPIPVYSINTTFDKPTVAVDGFDKLEVISIDHLPTLLPREASEAFSNDLLPSLLQLPLVTGVAGEEALQHVNEEGKGAVWTRAEALFRKHLAEAEANGA
notes: synthetic gene, C-terminal 6xHN tag (pET6xHN-C), expressed in E. coli BL21, Ni-IMAC, 43 kDa band on SDS-PAGE
- Km: 0.25 ± 7.1e-02 mM
